Measurements as given in PMC9649601 (2022).

Biological target: ubiquitin conjugating enzyme E2 I (UBE2I), recombinant (UniProt P63279 1-158)
Assay: ITC

Sequence of ubiquitin conjugating enzyme E2 I (UBE2I), recombinant (P63279 whole entry): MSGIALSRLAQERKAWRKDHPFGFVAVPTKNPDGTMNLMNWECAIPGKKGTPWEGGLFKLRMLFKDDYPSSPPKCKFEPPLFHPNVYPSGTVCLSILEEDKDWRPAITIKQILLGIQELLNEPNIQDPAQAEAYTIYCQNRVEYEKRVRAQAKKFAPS

- Kd: 373 nM
B1: lamin A (LMNA), wild type, recombinant (natural protein)
chain: METPSQRRATRSGAQASSTPLSPTRITRLQEKEDLQELNDRLAVYIDRVRSLETENAGLRLRITESEEVVSREVSGIKAAYEAELGDARKTLDSVAKERARLQLELSKVREEFKELKARNTKKEGDLIAAQARLKDLEALLNSKEAALSTALSEKRTLEGELHDLRGQVAKLEAALGEAKKQLQDEMLRRVDAENRLQTMKEELDFQKNIYSEELRETKRRHETRLVEIDNGKQREFESRLADALQELRAQHEDQVEQYKKELEKTYSAKLDNARQSAERNSNLVGAAHEELQQSRIRIDSLSAQLSQLQKQLAAKEAKLRDLEDSLARERDTSRRLLAEKEREMAEMRARMQQQLDEYQELLDIKLALDMEIHAYRKLLEGEEERLRLSPSPTSQRSRGRASSHSSQTQGGGSVTKKRKLESTESRSSFSQHARTSGRVAVEEVDEEGKFVRLRNKSNEDQSMGNWQIKRQNGDDPLLTYRFPPKFTLKAGQVVTIWAAGAGATHSPPTDLVWKAQNTWGCGNSLRTALINSTGEEVAMRKLVRSVTVVEDDEDEDGDDLLHHHHGSHCSSSGDPAEYNLRSRTVLCGTCGQPADKASASGSGAQVGGPISSGSSASSVTVTRSYRSVGGSGGGSFGDNLVTRSY
